Values of other authors, collected in PMC3565385 (Journal of computer-aided molecular design, 2012).

System: PTH1R
Details: ΔΔG = RT ln(Ki mutant/Ki wild-type) from published alanine scanning

B1: PTH R20A: parathyroid hormone with Arg20 replaced by alanine (peptide, UniProt P01270 32-115, looked up, variant R20A)
Parathyroid hormone: SVSEIQLMHNLGKHLNSMEAVEWLRKKLQDVHNFVALGAPLAPRDAGSQRPRKKEDNVLVESHEKSLGEADKADVNVLTKAKSQ
modifications: Parathyroid hormone
For B1, which “experimental ΔΔG” value is on record?
Its value is 2.96 kcal/mol.
